Series [1] concerns the molecule itself. The experiment in a line: rotary shadowing electron microscopy; samples at 50 μg/ml in 100 mM ammonium acetate, 30% (v/v) glycerol, pH 7.4, sprayed on mica, coated with platinum and carbon.
Series [2] addresses T1, FITC-labeled CRIB peptide of C. elegans MRCK1 (residues 1543-1572) (C. elegans, UniProt O01583 1543-1572, fluorescein (FITC) label, position not stated).
T1 construct: MRCK1, C. elegans, CRIB motif, residues 1543-1572; also called CRIB motif peptide; fluorescein-labeled peptide
T1 peptide (looked up): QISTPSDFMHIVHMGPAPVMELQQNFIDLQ
As to the kind of experiment: fluorescence polarisation; fluorescence anisotropy; Cdc42^2-178 loaded with GMPPNP titrated into 100 nM fluorescein-labeled peptide; 20 °C, 20 mM Tris pH 8.0, 100 mM NaCl, 1 mM TCEP; one-site binding model. Conditions: both partners purified. (In general: Fluorescence polarisation rises when a labelled molecule tumbles more slowly, as on binding a larger partner.)

This is an account of results in article doi:10.1101/2022.03.11.483953, “Structure and regulation of the myotonic dystrophy kinase-related Cdc42-binding kinase” (bioRxiv, 2022).

B1: C. elegans MRCK1, full length (MRCK1^1-1592) (enzyme, UniProt O01583 1-1592, looked up)
chain: MAEPPPDDSAPVRLKTLENIYMDGPSKKPEALSFETLIDSLICLYDECCNSTLRKEKCIAEFVESVKTVISKAKKLRLSRDDFEVLKVIGKGAFGEVAVVRMRGVGEIYAMKILNKWEMVKRAETACFREERDVLVYGDRRWITNLHYAFQDEKNLYFVMDYYIGGDMLTLLSKFVDHIPESMAKFYIAEMVLAIDSLHRLGYVHRDVKPDNVLLDMQGHIRLADFGSCLRILADGSVASNVAVGTPDYISPEILRAMEDGRGRYGKECDWWSLGICMYEMLYGTTPFYSERLVDTYGKIMSHQDMLDFPDDEIDWVVSEEAKDLIRQLICSSDVRFGRNGLSDFQLHPFFEGIDWNTIRDSNPPYVPEVSSPEDTSNFDVDVCEDDFTPCLQETQPPRVLAAFTGNHLPFVGFSYTHGSLLSDARSLTDEIRAIAQRCQGDAELMEKSVDGFMVELENEKAELVQKLKEAQTIIAQHVAENPRSEEDRNYESTIAQLKDEIQILNKRLEDEALAQQQQKPKDEIVAESEKKLKELKERNKQLVMEKSEIQRELDNINDHLDQVLVEKATVVQQRDDMQAELADVGDSLLTEKDSVKRLQDEAEKAKKQVADFEEKLKEIETEKIALIKKQEEVTIEARKSVETDDHLSEEVVAAKNTIASLQATNEERETEIKKLKQRMDEERASHTAQSEQEMKQLEAHYERAQKMLQDNVEQMNVENRGLRDEIEKLSQQMAALPRGGLNEQQLHEIFNWVSEEKATREEMENLTRKITGEVESLKNNSPLTTSNYIQNTPSGWGSRRMNNVARKDGLDLQRQLQAEIDAKLKLKAELKNSQEQYLTSAARLDDTEKRMASLMREVAMLKQQKNIENSSDSAFSSTMGRGDLMISMNNDYEMSNSSLMRQEMISRQSTPSYENAILLHDHQVPKRVDDLRYKQKPMKTASGIFSPVSISAMERGHNFERMKIKTPTKCGHCTSILIGLDRQGLFCQSCQYACHVSCAERVSQSCPVPEEERRPLGIDPTRGVGTAYEGLVKTPRAGGVRKGWQTAYVVVCDFKLYLYDCTVDRQNKMQDVKNEIRLVLDMRDPDFTVCGVSEADVIHAQKGDIPKIFRVTTTQILNSSSEYSSSSKFYTLFMAETEEEKRKWVVALSELKTLLRRSKLADRKAFLVKEVFDVTTLPSIRVAQCCAIIDRSKIVIGFSDHGLYCIEISRQLLIPVGGEKENKQRCVETVEYDEAEQLLMMIVGPAKDRHVRIVPSAALDGRDLKWIKVNDTKGCHLLAVGTNNPGGRAGFFAVAFKKSVTIFQIDRSEKRHKKWKDLAMPGTPQSIAIFNGRLYVGFSHSFRSWSLVGVDSSPVGSGDASGAVLQHISLVNMEDTSLQFLNQQTSYEAKLIVNVPGSPDEYLLVFNMIGLYVNEMGRRSRLPEVMFPTQAKYFAYHEPYLCVFSENEVDIFNVTLAEWVQTINLRSAKPLSGDGILSTCLCNDSPIFVLLQNVLQDQDSIEVPVNLASGSTDGRKVTRRKFTFRTIGKDDRSASERRSHIQISTPSDFMHIVHMGPAPVMELQQNFIDLQSNHSHTSSDKDSLNRSVNND
notes: source: baculovirus-infected Sf9 insect cells, purified (HisTrap, TEV cleavage, HiTrap Q); not shown: His10, N-terminal, cleaved; StrepII, N-terminal, cleaved
With B1, in series [1], the stoichiometry N (usually a count of units in the complex or per binding partner) was determined as 2.

B2: Cdc42^2-178 (C-terminally truncated Cdc42 lacking its geranylgeranylation motif) (domain or fragment)
chain: not shown
notes: Cdc42, residues 2-178, C-terminally truncated; Loaded with GDP or with GMPPNP (Dbs exchange factor, then size exclusion) before the titration; the two loaded states are told apart by the assay; The species may be human instead (P60953); also called Cdc42 (residues 2-178); source: E. coli, purified (GST beads, TEV cleavage, SD75 size exclusion); not shown: GST, N-terminal, cleaved
On to B2, for which the “fold stronger than Cdc42 bound to GDP” value in series [2] was determined as 5 fold.
